Source: the supplement of paper PMC12667976

B1: library; numbered along this chain (parent)
chain: MATDAALRRLLRLHRTEIAVAVDSAFPLLHALADHDVVPEDKFQETLHLKEKEGCPQAFHALLSWLLTQDSTAILDFWRVLFKDYNLERYGRLQPILDSFPKDVDLSQPRKGRKPPAVPKALVPPPRLPTKRKASEEARAAAPAALTPRGTASPGSQLKAKPPKKPESSAEQQRLPLGNGIQTMSASVQRAVAMSSGDVPGARGAVEGILIQQVFESGGSKKCIQVGGEFYTPSKFEDSGSGKNKARSSSGPKPLVRAKGAQGAAPGGGEARLGQQGSVPAPLALPSDPQLHQKNEDECAVCRDGGELICCDGCPRAFHLACLSPPLREIPSGTWRCSSCLQATVQEVQPRAEEPRPQEPPVETPLPPGLRSAGEEVRGPPGEPLAGMDTTLVYKHLPAPPSAAPLPGLDSSALHPLLCVGPEGQQNLAPGARCGVCGDGTDVLRCTHCAAAFHWRCHFPAGTSRPGTGLRCRSCSGDVTPAPVEGVLAPSPARLAPGPAKDDTASHEPALHRDDLESLLSEHTFDGILQWAIQSMARPAAPFPS

Variants of: B1
Test: AIRE transcriptional activation functional score (insulin promoter-GFP; nonsense median 0, synonymous median 1) (normalised score); higher = higher AIRE activity (more reporter activation)
Conditions: with insulin promoter-GFP reporter in HEK293
Outline: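 Integration of codon-optimized AIRE NNN-codon libraries (three regions) by Bxb1 recombinase was done in Flp-In T-REx HEK293 landing-pad cells containing an insulin core promoter-GFP reporter. Tile-sequencing covered the top 10% GFP cells and the unselected integrants, drawn from mCherry+, BFP− cells sorted at day 7 and grown 7 days. Functional score means the enrichment of a variant in select versus non-select, minus that of wild type. Variants with at least 10 counts per million in non-select were rescaled to nonsense median 0 and synonymous median 1, and the biological replicates were averaged.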

AIRE transcriptional activation functional score: each site, then its substitutions
L397: F 0.99 | G 0.775 | H 0.0686 | I 0.407 | K 0.921 | M 0.0442 | N 0.167 | P 0.66 | Q 1.36 | R 0.938 | S 0.938 | T 0.852 | V 0.641 | W 0.989 | Y 0.779
P398: A 1.09 | C 0.359 | D 0.585 | E 0.984 | F 1.43 | G 1.14 | H 1.24 | I 1.23 | K 1.04 | L 1.5 | M 0.82 | N 0.615 | Q 1.31 | R 0.958 | S 0.979 | T 1.21 | V 1.31 | W 1.64 | Y 1.69
A399: C 1.18 | E 0.88 | F 1.64 | G 0.994 | H 1.63 | I 0.768 | K 0.799 | L -0.706 | M 1.22 | N 0.798 | P 1.38 | Q 0.327 | R 0.779 | S 0.793 | T 0.845 | V 0.911 | W 1.2 | Y -0.0769
P400: A 1.56 | C 0.972 | D 0.319 | E 0.545 | F 0.712 | G 1.13 | H 0.71 | I 0.76 | L 0.451 | N 0.58 | Q 1.52 | R 1.16 | S 0.846 | T 0.851 | V 0.815 | W 1.89 | Y 1.69
P401: A 0.611 | C 1.7 | D 1.07 | E 1.49 | F 0.595 | G 1.14 | H 1.01 | I 0.809 | K 1.55 | L 0.646 | M 0.689 | N 1.09 | Q 1.18 | R 1.15 | S 1.25 | T 0.717 | V 0.635 | Y 1.14
S402: A 1.05 | C 1.1 | D 0.871 | E 0.833 | F 0.518 | G 1.34 | H 1.48 | I 0.78 | K 0.894 | L 0.984 | M 0.776 | N 1.13 | P 1.07 | Q 0.546 | R 1.02 | T 0.974 | V 0.921 | W 1.22 | Y 1.17
A403: C 0.942 | D 0.541 | E 1.14 | F 1.09 | G 1.26 | H 1.02 | I 1.5 | K 1.06 | L 1.29 | M 1.38 | N 1.09 | P 0.99 | Q 0.915 | R 0.877 | S 0.725 | T 1.14 | V 1.29 | W 1.72 | Y 0.507
A404: C 0.451 | D 0.792 | E 0.954 | F 1.26 | G 0.91 | H 1.66 | I 0.94 | K 1.05 | L 1.26 | M 0.918 | P 1.28 | Q 0.81 | R 1.01 | S 1.02 | T 1.04 | V 0.729 | W 1.16 | Y 1.3
P405: C 1.59 | E 0.742 | F 1.03 | G 0.341 | H 1.04 | I 1.59 | K 1 | L 0.801 | N 1.22 | Q 0.685 | R 0.984 | S 1.05 | T 1.16 | V 1.21 | Y 1.17
L406: A 0.954 | C 1.3 | D 0.772 | E 1.12 | F 0.76 | G 1.08 | H 1.19 | I 1.19 | K 0.516 | M 1.3 | N 1.18 | P 0.97 | Q 1.11 | R 0.985 | S 0.856 | T 0.633 | V 0.908 | W 0.702 | Y 1.02
P407: A 0.943 | C 1.24 | D 1.67 | E 0.454 | F 1.2 | G 1.07 | H 1.28 | I 1.43 | K 0.865 | L 1.06 | M 1.6 | N 1.39 | Q 1.2 | R 0.823 | S 1.19 | T 1.18 | V 1.23 | W 1.13 | Y 1.51
G408: A 0.914 | C 1.01 | D 1.2 | E 1.05 | F 1.28 | H 1.31 | I 0.636 | K 1.14 | L 0.00278 | N 0.674 | P 0.97 | Q 1.29 | R 0.906 | S 1.03 | T 0.879 | V 0.743 | W 1.34 | Y 1.08
L409: A 0.384 | C 0.887 | D 1.21 | E 0.899 | F 0.907 | G 0.891 | H 0.62 | I 1.16 | K 0.881 | M 1.03 | N 0.459 | P 1.25 | Q 0.636 | R 0.789 | S 1.23 | T 1.02 | V 0.903 | Y 0.962
D410: A 1.09 | C 1.12 | E 1.11 | F 1.06 | G 0.967 | H 1.17 | I 1.19 | K 0.35 | L 1.08 | M 0.501 | N 1.12 | P 0.93 | Q 1.2 | R 0.412 | S 1.27 | T 1.41 | V 0.998 | W 0.337 | Y 1.27
S411: A 1.04 | C 1.45 | D 0.711 | E 0.407 | F 1.46 | G 0.952 | H 0.897 | I 1.3 | K 1.18 | L 1.24 | M 1.37 | N 0.99 | P 1.08 | Q 0.0682 | R 0.871 | T 0.867 | V 1.06 | W 1.31 | Y 1.06
S412: A 1.09 | C 0.988 | D 0.652 | E 0.743 | F 1.37 | G 1.03 | H 1.26 | I 0.868 | K 0.899 | L 1.15 | M 1.3 | N 0.717 | P 0.711 | Q 0.66 | R 1.07 | T 1.02 | V 1.13 | W 1.72 | Y 1.5
A413: C 1.42 | D 0.666 | E 0.842 | F 0.975 | G 1.12 | H 0.905 | I 1.34 | K 0.606 | L 1.43 | M 1.02 | N 0.373 | P 0.731 | Q 1.01 | R 0.964 | S 0.965 | T 1.17 | V 0.931 | W 1.15 | Y 1.25
L414: A 1.49 | C 0.792 | D 1.03 | E 1.08 | F 1.41 | G 0.546 | H 0.857 | I 1.45 | K 0.634 | N 1.07 | P 0.785 | R 0.749 | S 0.625 | T 1.14 | V 1.1 | W 0.979 | Y -0.109
H415: A 1.08 | C 0.616 | D 0.797 | E 1.32 | F 1.67 | G 0.474 | I 0.632 | K 0.65 | L 1.22
